Reference: PMC8547954, “Myopalladin knockout mice develop cardiac dilation and show a maladaptive response to mechanical pressure overload” (eLife, 2021)

Legend:
Conditions in all cases: both partners purified
[1] = molecular target: T1, human MYPN C-terminal region including three Ig domains (MYPN C-term; Res. 813-1320), N-terminal 6xHis-tag (human, UniProt Q86TC9-1 813-1320, NT-647 dye via NHS-driven amino coupling (only where it was the labelled partner, Figure 1C)); experiment: MST; 400 nM NT-647-labelled MYPN C-term titrated with titin Ig Z4-Z5; 30 min at room temperature in 20 mM Tris-HCl pH 8, 150 mM NaCl, 5 mM EDTA, 4 mM DTT; Hill fit; full saturation reached; apparent
T1 construct: Unlabelled in assay a3, labelled with NT-647 in assay a4; also called MYPN C-terminal fragment; MYPN C-terminal domain; source: E. coli BL21-CodonPlus (DE3)-RIPL, purified (HisTrap, Superdex 75 SEC)
T1 sequence (looked up): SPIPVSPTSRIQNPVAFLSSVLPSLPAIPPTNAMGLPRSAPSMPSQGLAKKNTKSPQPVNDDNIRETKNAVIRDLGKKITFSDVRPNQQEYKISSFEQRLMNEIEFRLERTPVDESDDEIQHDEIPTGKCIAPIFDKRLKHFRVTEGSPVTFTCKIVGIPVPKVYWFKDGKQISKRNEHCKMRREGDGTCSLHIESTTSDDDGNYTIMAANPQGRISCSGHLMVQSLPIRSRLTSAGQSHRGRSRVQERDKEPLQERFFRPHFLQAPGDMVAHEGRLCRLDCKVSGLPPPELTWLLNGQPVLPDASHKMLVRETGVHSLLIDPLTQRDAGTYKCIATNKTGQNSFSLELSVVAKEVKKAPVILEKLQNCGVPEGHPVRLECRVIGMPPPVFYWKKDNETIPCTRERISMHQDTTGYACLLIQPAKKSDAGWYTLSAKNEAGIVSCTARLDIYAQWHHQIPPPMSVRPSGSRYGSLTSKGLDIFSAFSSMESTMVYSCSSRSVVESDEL

[2] = molecular target: T1, human MYPN C-terminal region including …; experiment: MST; 450 nM NT-647-labelled titin Ig Z4-Z5 titrated with MYPN (up to 20 µM) or PALLD (up to 30 µM) C-term; 30 min at room temperature in 20 mM Tris-HCl pH 8, 150 mM NaCl, 5 mM EDTA, 4 mM DTT; Hill fit; saturation not reached, Kd could not be unequivocally determined; apparent
[3] = molecular target: T2, PALLD C-terminal region (PALLD C-term; Res. 794-1123), N-terminal 6xHis-tag followed by a human rhinovirus 3C … (human, UniProt Q8WX93-9 794-1123); experiment: as above
T2 construct: numbers count on: NM_001166108.1; A 3C protease site follows the tag; also called homologous fragment of PALLD; PALLD C-terminal domain; source: E. coli BL21-CodonPlus (DE3)-RIPL, purified (HisTrap, Superdex 75 SEC)
T2 sequence (looked up): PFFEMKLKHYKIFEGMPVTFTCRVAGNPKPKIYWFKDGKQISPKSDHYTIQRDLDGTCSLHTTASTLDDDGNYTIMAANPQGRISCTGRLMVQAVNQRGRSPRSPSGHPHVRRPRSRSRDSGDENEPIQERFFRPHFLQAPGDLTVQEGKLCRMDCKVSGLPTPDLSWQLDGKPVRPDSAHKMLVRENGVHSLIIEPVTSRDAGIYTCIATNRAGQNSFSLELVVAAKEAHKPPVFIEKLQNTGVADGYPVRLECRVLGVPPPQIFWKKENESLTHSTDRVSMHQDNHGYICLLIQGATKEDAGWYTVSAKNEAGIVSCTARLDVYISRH

Kd [1]: 2.8 ± 0.5 µM
Kd [2]: 7.2 ± 2.6 µM
Kd [3]: 6.1 ± 0.8 µM
B1: titin Ig domains Z4-Z5 (Res. 942-1173), N-terminal 6xHis-tag (domain or fragment, human, UniProt Q8WZ42-1 942-1173, looked up)
chain: PPTLVSGLKNVTVIEGESVTLECHISGYPSPTVTWYREDYQIESSIDFQITFQSGIARLMIREAFAEDSGRFTCSAVNEAGTVSTSCYLAVQVSEEFEKETTAVTEKFTTEEKRFVESRDVVMTDTSLTEEQAGPGEPAAPYFITKPVVQKLVEGGSVVFGCQVGGNPKPHVYWKKSGVPLTTGYRYKVSYNKQTGECKLVISMTFADDAGEYTIVVRNKHGETSASASLLE
modifications: NT-647 dye via NHS-driven amino coupling (only where it was the labelled partner, Figure 1B)
notes: titin, human, Ig domains Z4-Z5, residues 942-1173 of NM_001256850.1; Labelled with NT-647 in assay a3, unlabelled in assay a4; also called titin Ig domain Z4-Z5 peptide; titin Ig domain Z4-Z5 fragment; source: E. coli BL21-CodonPlus (DE3)-RIPL, purified (HisTrap, Superdex 75 SEC)
